The text below walks through data of US20170312343A1, “Uses of FAHD1” (UNIVERSITÄT INNSBRUCK, priority 2014, published 2017).

The target of one series is T1, FAHD1 (Homo sapiens, UniProt Q6P587).
T1 construct: His-tag (N); S-tag (N); made in house; host or cells: E. coli
T1 sequence (Q6P587 25-221): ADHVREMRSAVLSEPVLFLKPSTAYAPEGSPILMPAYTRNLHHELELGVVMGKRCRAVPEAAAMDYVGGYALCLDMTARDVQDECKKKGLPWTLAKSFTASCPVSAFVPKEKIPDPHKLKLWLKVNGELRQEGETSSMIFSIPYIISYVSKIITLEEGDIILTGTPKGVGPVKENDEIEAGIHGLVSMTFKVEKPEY
The series is described as follows: oxalate inhibitor assay (oxaloacetate decarboxylase assay). It is filed as biochemical. The note with it: purified recombinant wild-type FAHD1, room temperature, pH 7.4, absorbance 255 nm, FIG. 2C; read-out: IC50, inhibition of oxaloacetate decarboxylation by FAHD1. As for the experimental part:
(§1) N-terminally His- and S-tagged versions of human wild-type FAHD1 and a double mutant (Asp102Ala, Arg106Ala) were recombinantly expressed in E. coli and purified as reported previously (Pircher et al., J Biol Chem, 2011, 286(42)).
(§2) For measurement of oxaloacetate decarboxylase rates, 1 ml samples of 25 μM to 1 mM oxaloacetate in assay buffer (50 mM Tris-HCl, 100 mM KCl, 1 mM MgCl2, pH 7.4) containing purified FAHD1, FAHD1mut (3-60 μg, depending on substrate concentration) or no enzyme were prepared. Samples were incubated at room temperature and analysed in regular time intervals by measuring absorbance (infinite M200, Tecan) at 255 nm (ε=1070 M^−1 cm^−1) in disposable UV-cuvettes (Brand). Reaction mixtures containing no substrate were used as blank. For the oxalate inhibitor assay, the sample buffer was supplemented with 200 μM sodium oxalate. All rates were corrected for auto-decarboxylation under assay conditions.

Series [1] in a line: oxaloacetate decarboxylase assay, photometric, enzyme kinetics of purified FAHD1. The format is biochemical, human. The following applies: purified wild-type enzyme, room temperature, pH 7.4, FIG. 2A. As for the experimental part:
as §1, §2

One may read the IC50 as the point on the concentration scale where inhibition reaches its midpoint. Turning to `O=C([O-])C(=O)[O-].[Na+].[Na+]` [oxalate, sodium oxalate], the IC50 at FAHD1 was around 20 µM.

B1: fumarylacetoacetate hydrolase domain containing protein 1 (protein, UniProt Q6P587 25-221, looked up)
Oxaloacetate tautomerase …: T1 sequence (Q6P587 25-221)
notes: recombinant human wild-type FAHD1 expressed in E. coli
Broadly, the Km is the concentration of substrate that gives half-maximal velocity. As to B1, in series [1], the Km came to 32 µM and the “Vmax of oxaloacetate degradation” value came to 0.21 µmol/min/mg.
